According to patent publication US10208087B2, “Peptides” (Hoffmann-La Roche Inc., priority 2014, dated 2019):
Structures can show the parent of a compound that is named as a salt. Starred links: 1 amine or outer side, 2 acyl side, 3 side chain; linkers in the order of their positions; H or OH if unused. Non-standard residues stand in square brackets, D forms with d. Residues, ends and D or L forms follow the SMILES beside them. No end group written: not given here. *: point of attachment. Elaidic = elaidic acid acyl on Lys side chain, CCCCCCCC/C=C/CCCCCCCC(=O)*; MetSta(3S,4S) = CSCC[C@H](N[*:1])[C@@H](O)CC(=O)[*:2]; Palmitoleoyl = CCCCCC/C=C\CCCCCCCC(=O)*; Sta = CC(C)C[C@H](N)[C@@H](O)CC(=O)O; Palmitoyl = CCCCCCCCCCCCCCCC(=O)*; PEG4 = NCCOCCOCCOCCOCCC(=O)O; PEG3 = NCCOCCOCCOCCC(=O)O; Nle = CCCC[C@H](N)C(=O)O; Palm = palmityl

B1: YPYFIPL-GPG-EVN-Sta-VAEFK(Palm)-NH2 x TFA (peptide)
peptide: YPYFIPLGPGEVN[Sta]VAEFK(Palm)-NH2
modifications: also: TFA salt
B2: YPKFIPL-GkG-EVN-Sta-VAEp-K(Palmitoleic)-NH2 x 3TFA (peptide)
peptide: YPKFIPLG[dK]GEVN[Sta]VAE[dP]K(Palmitoleoyl)-NH2
modifications: also: 3TFA salt
B3: YPKFIPL-GkG-EVN-Sta-VAEp-K(Vaccenic)-NH2 x 3TFA (peptide)
peptide: YPKFIPLG[dK]GEVN[Sta]VAE[dP]K(Vaccenic)-NH2
modifications: also: 3TFA salt
B4: YPYFIPL-GSG-EVN-Sta-VAEFK(Palm)-NH2 x TFA (peptide)
peptide: YPYFIPLGSGEVN[Sta]VAEFK(Palm)-NH2
modifications: also: TFA salt
B5: YPYFIPL-AGG-EVN-Sta-VAEFK(Palm)-NH2 x TFA (peptide)
peptide: YPYFIPLAGGEVN[Sta]VAEFK(Palm)-NH2
modifications: also: TFA salt
B6: YPYFIPL-GkG-EVN-Sta-VAEFK(Palm)-NH2 x TFA (peptide)
peptide: YPYFIPLG[dK]GEVN[Sta]VAEFK(Palm)-NH2
modifications: also: TFA salt
B7: YPKFIPL-GkG-EVN-Sta-VAEp-K(Palm)-NH2 x 3TFA (peptide)
peptide: YPKFIPLG[dK]GEVN[Sta]VAE[dP]K(Palm)-NH2
modifications: also: 3TFA salt
B8: YPYFIPL-GpG-EVN-Sta-VAEFK(Palm)-NH2 x TFA (peptide)
peptide: YPYFIPLG[dP]GEVN[Sta]VAEFK(Palm)-NH2
modifications: also: TFA salt
B9: YPKFIPL-GkG-EVN-Sta-VAEp-K(Myristoleic)-NH2 x 3TFA (peptide)
peptide: YPKFIPLG[dK]GEVN[Sta]VAE[dP]K(Myristoleic)-NH2
modifications: also: 3TFA salt
B10: YPYFIPL-G-Nle-G-EVN-Sta-VAEFK(Palm)-NH2 x TFA (peptide)
peptide: YPYFIPLG[Nle]GEVN[Sta]VAEFK(Palm)-NH2
modifications: also: TFA salt
B11: YPYFIPL-PEG(4)-EVN-MetSta-VAE-DPhe-K(Palm)-NH2 x TFA (peptide)
peptide: YPYFIPL[PEG4]EVN[MetSta(3S,4S)]VAE[dF]K(Palm)-NH2
modifications: also: TFA salt
B12: YPKFIPL-GkG-EVN-Sta-VAEp-K(Erucic)-NH2 x 3TFA (peptide)
peptide: YPKFIPLG[dK]GEVN[Sta]VAE[dP]K(Erucic)-NH2
modifications: also: 3TFA salt
B13: YPYFIPL-PEG(3)-EVN-MetSta-VAE-DPhe-K(Palm)-NH2 x TFA (peptide)
peptide: YPYFIPL[PEG3]EVN[MetSta(3S,4S)]VAE[dF]K(Palm)-NH2
modifications: also: TFA salt
B14: YPKFIPL-GkG-EVN-Sta-VAEp-K(Oleic)-NH2 x 3TFA (peptide)
peptide: YPKFIPLG[dK]GEVN[Sta]VAE[dP]K(Oleic)-NH2
modifications: also: 3TFA salt
B15: YPYFIPL-Gak-EVN-Sta-VAEFK(Palm)-NH2 x TFA (peptide)
peptide: YPYFIPLG[dA][dK]EVN[Sta]VAEFK(Palm)-NH2
modifications: also: TFA salt
B16: YPKFIPL-GkG-EVN-Sta-VAEp-K(Elaidic)-NH2 x 3TFA (peptide)
peptide: YPKFIPLG[dK]GEVN[Sta]VAE[dP]K(Elaidic)-NH2
modifications: also: 3TFA salt
B17: YPYFIPL-GGS-EVN-Sta-VAEFK(Palm)-NH2 x TFA (peptide)
peptide: YPYFIPLGGSEVN[Sta]VAEFK(Palm)-NH2
modifications: also: TFA salt
B18: YPYFIPL-GGG-EVN-Sta-VAEFK(Palm)-NH2 x TFA (peptide)
peptide: YPYFIPLGGGEVN[Sta]VAEFK(Palm)-NH2
modifications: also: TFA salt

Target: T1, BACE1 (Homo sapiens, UniProt P56817)
T1 construct: Human HEK293 cells which are stably transfected with a vector expressing a cDNA of the human APP wt gene (APP695); endogenous in cells; host or cells: HEK293 cells stably transfected with human APP695 wt
T1 sequence (P56817 46-501): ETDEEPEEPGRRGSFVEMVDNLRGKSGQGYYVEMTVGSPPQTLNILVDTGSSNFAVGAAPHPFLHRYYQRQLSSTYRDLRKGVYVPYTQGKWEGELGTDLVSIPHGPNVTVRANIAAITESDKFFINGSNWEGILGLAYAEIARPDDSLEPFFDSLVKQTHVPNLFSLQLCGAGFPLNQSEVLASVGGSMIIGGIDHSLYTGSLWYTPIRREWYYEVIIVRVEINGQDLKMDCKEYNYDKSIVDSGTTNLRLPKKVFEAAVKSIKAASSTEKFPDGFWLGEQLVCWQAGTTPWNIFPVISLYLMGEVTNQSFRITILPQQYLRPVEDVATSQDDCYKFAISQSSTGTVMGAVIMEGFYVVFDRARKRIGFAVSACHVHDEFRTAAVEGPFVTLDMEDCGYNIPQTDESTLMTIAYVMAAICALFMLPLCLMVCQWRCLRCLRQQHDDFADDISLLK
Experiment: Cellular Aβ-lowering Assay
Type: cell-based
Details: Aβ40 in culture supernatant (ELISA) of human HEK293 cells stably expressing human APP wt (APP695); 18-20 hrs incubation
Description: The compounds were investigated in accordance with the test given hereinafter. Cellular Aβ-lowering Assay: Human HEK293 cells which are stably transfected with a vector expressing a cDNA of the human APP wt gene (APP695) were used to assess the potency of the compounds in a cellular assay. […] After blocking of non-specific binding sites with e.g. 1% BSA and washing, the culture supernatants were added in suitable dilutions together with a horseradish peroxidase-coupled Aβ detection antibody (e.g., antibody 4G8, Senetek, Maryland Heights, Mo.) and incubated for 5 to 7 hrs. Subsequently the wells of the microtiter plate were washed extensively with Tris-buffered saline containing 0.05% Tween 20 and the assay was developed with tetramethylbenzidine/H2O2 in citric acid buffer. After stopping the reaction with one volume 1 N H2SO4 the reaction was measured in an ELISA reader at 450 nm wavelength. The concentrations of Aβ in the culture supernatants were calculated from a standard curve obtained with known amounts of pure Aβ peptide.

| IC50 [nM] | Molecule |
| --- | --- |
| 120 | CCCCCCCCCCCCCCCC(=O)NCCCC[C@H](NC(=O)[C@H](Cc1ccccc1)NC(=O)[C@H](CCC(=O)O)NC(=O)[C@H](C)NC(=O)[C@@H](NC(=O)C[C@H](O)[C@H](CC(C)C)NC(=O)[C@H](CC(N)=O)NC(=O)[C@@H](NC(=O)[C@H](CCC(=O)O)NC(=O)CNC(=O)[C@H](CCCC)NC(=O)CNC(=O)[C@H](CC(C)C)NC(=O)[C@@H]1CCCN1C(=O)[C@@H](NC(=O)[C@H](Cc1ccccc1)NC(=O)[C@H](Cc1ccc(O)cc1)NC(=O)[C@@H]1CCCN1C(=O)[C@@H](N)Cc1ccc(O)cc1)[C@@H](C)CC)C(C)C)C(C)C)C(N)=O [Example 6, Tyr-Pro-Tyr-Phe-Ile-Pro-Leu-Gly-Nle-Gly-Glu-Val-Asn-Sta-Val-Ala-Glu-Phe-Lys(Palmityl)-NH2 x TFA] |
| 41 | CCCCCCCCCCCCCCCC(=O)NCCCC[C@H](NC(=O)[C@H](Cc1ccccc1)NC(=O)[C@H](CCC(=O)O)NC(=O)[C@H](C)NC(=O)[C@@H](NC(=O)C[C@H](O)[C@H](CC(C)C)NC(=O)[C@H](CC(N)=O)NC(=O)[C@@H](NC(=O)[C@H](CCC(=O)O)NC(=O)CNC(=O)[C@H](CO)NC(=O)CNC(=O)[C@H](CC(C)C)NC(=O)[C@@H]1CCCN1C(=O)[C@@H](NC(=O)[C@H](Cc1ccccc1)NC(=O)[C@H](Cc1ccc(O)cc1)NC(=O)[C@@H]1CCCN1C(=O)[C@@H](N)Cc1ccc(O)cc1)[C@@H](C)CC)C(C)C)C(C)C)C(N)=O [Example 9, Tyr-Pro-Tyr-Phe-Ile-Pro-Leu-Gly-Ser-Gly-Glu-Val-Asn-Sta-Val-Ala-Glu-Phe-Lys(Palmityl)-NH2 x TFA] (H-YPYFIPLGSGEVN[Sta]VAEFK(Palmitoyl)-NH2; N-terminus assumed) |
| 41 | CCCCCCCCCCCCCCCC(=O)NCCCC[C@H](NC(=O)[C@@H](Cc1ccccc1)NC(=O)[C@H](CCC(=O)O)NC(=O)[C@H](C)NC(=O)[C@@H](NC(=O)C[C@H](O)[C@H](CCSC)NC(=O)[C@H](CC(N)=O)NC(=O)[C@@H](NC(=O)[C@H](CCC(=O)O)NC(=O)CCOCCOCCOCCNC(=O)[C@H](CC(C)C)NC(=O)[C@@H]1CCCN1C(=O)[C@@H](NC(=O)[C@H](Cc1ccccc1)NC(=O)[C@H](Cc1ccc(O)cc1)NC(=O)[C@@H]1CCCN1C(=O)[C@@H](N)Cc1ccc(O)cc1)[C@@H](C)CC)C(C)C)C(C)C)C(N)=O [Example 33, Tyr-Pro-Tyr-Phe-Ile-Pro-Leu-(PEG)3-Glu-Val-Asn-MetSta-Val-Ala-Glu-DPhe-Lys(Palm)-NH2 x TFA] (H-YPYFIPL[PEG3]EVN[MetSta(3S,4S)]VAE[dF]K(Palmitoyl)-NH2; N-terminus assumed) |

Target: BACE1 (UniProt P56817 46-501, limits assumed)
Sequence (P56817 46-501 limits assumed): as the sequence (P56817 46-501) above
Experiment: cell-based or functional assay
Details: not given

| IC50, cellular Aβ-lowering assay (Aβ40 in supernatant of HEK293 cells expressing human APP695) [nM] | Molecule |
| --- | --- |
| 140 | B1 |
| 19.9 | B2 |
| 2.68 | B3 |
| 41 | B4 |
| 53 | B5 |
| 64 | B6 |
| 1.37 | B7 |
| 48 | B8 |
| 208 | B9 |
| 120 | B10 |
| 18 | B11 |
| 1.15 | B12 |
| 41 | B13 |
| 6.02 | B14 |
| 98 | B15 |
| 3.02 | B16 |
| 53 | B17 |
| 120 | B18 |
